One experiment concerns the target BSA (UniProt P02769 25-607). The experiment is described as follows: single-point ELISA, BSA control.
The target of another experiment is gp120 Bal (HIV (Bal)). The experiment can be described thus: single-point ELISA at EC50 conc. of A-1. (In general: In an ELISA, binding on a coated surface is turned into a signal by an enzyme label.)
In another experiment the target is gp120 SHIV SF162 P3 (SHIV SF162 P3). The experiment can be described thus: single-point ELISA at EC50 conc. of A-1.
The target of another experiment is gp120 CAAN (HIV (CAAN)). The experiment is described as follows: single-point ELISA at EC50 conc. of A-1.

B1: Antibody A-1 (antibody, human IgG1, kappa)
heavy: QVQLLQSGAAVTKPGASVRVSCEASGYNIRDYFIHWWRQAPGQGLQWVGWINPKTGQPNNPRQFQGRVSLTRHASWDFDTFSFYMDLKALRSDDTAVYFCARQRSDYWDFDVWGSGTQVTVSSASTKGPSVFPLAPSSKSTSGGTAALGCLVKDYFPEPVTVSWNSGALTSGVHTFPAVLQSSGLYSLSSVVTVPSSSLGTQTYICNVNHKPSNTKVDKKVEPKSCDKTHTCPPCPAPELLAGPDVFLFPPKPKDTLMISRTPEVTCVVVDVSHEDPEVKFNWYVDGVEVHNAKTKPREEQYNSTYRVVSVLTVLHQDWLNGKEYKCKVSNKALPLPEEKTISKAKGQPREPQVYTLPPSREEMTKNQVSLTCLVKGFYPSDIAVEWESNGQPENNYKTTPPVLDSDGSFFLYSKLTVDKSRWQQGNVFSCSVLHEALHSHYTQKSLSLSPGK
light: DIQMTQSPSSLSASVGDTVTITCQANGYLNWYQQRRGKAPKLLIYDGSKLERGVPSRFSGRRWGQEYNLTINNLQPEDIATYFCQVYEFVVPGTRLDLKRTVAAPSVFIFPPSDEQLKSGTASVVCLLNNFYPREAKVQWKVDNALQSGNSQESVTEQDSKDSTYSLSSTLTLSKADYEKHKVYACEVTHQGLSSPVTKSFNRGEC
For B1, the “ELISA A450” value with BSA came out at 0.06 A450; in the experiment with gp120 Bal, 0.91 A450; with gp120 SHIV SF162 P3 it was 0.94 A450; with gp120 CAAN, 1.06 A450.

B2: 1.36.1-1 (antibody, human IgG1, kappa)
heavy: QVQLVQSGAEVKKPGASVRVSCKASGYNIRDYFMHWWRQAPGQGLQWVGWINPKTGQPNNPRQFQGRVTMTRHASWDFDTFSAYMDLSRLRSDDTATYFCARQRTDYWDFDVWGQGTMVTVSSASTKGPSVFPLAPSSKSTSGGTAALGCLVKDYFPEPVTVSWNSGALTSGVHTFPAVLQSSGLYSLSSVVTVPSSSLGTQTYICNVNHKPSNTKVDKKVEPKSCDKTHTCPPCPAPELLAGPDVFLFPPKPKDTLMISRTPEVTCVVVDVSHEDPEVKFNWYVDGVEVHNAKTKPREEQYNSTYRVVSVLTVLHQDWLNGKEYKCKVSNKALPLPEEKTISKAKGQPREPQVYTLPPSREEMTKNQVSLTCLVKGFYPSDIAVEWESNGQPENNYKTTPPVLDSDGSFFLYSKLTVDKSRWQQGNVFSCSVLHEALHSHYTQKSLSLSPGK
light: DIQMTQSPSSLSASVGDTVTITCQANGYLNWYQQRRGKAPKLLIYDGSKLERGVPSRFSGRRWGQEYNLTINNLQPEDIATYFCQVYEFVVPGTRLDLKRTVAAPSVFIFPPSDEQLKSGTASVVCLLNNFYPREAKVQWKVDNALQSGNSQESVTEQDSKDSTYSLSSTLTLSKADYEKHKVYACEVTHQGLSSPVTKSFNRGEC
For the molecule B2, the “ELISA A450” value amounted to 1.13 A450 in the experiment with gp120 Bal, 0.59 A450 in the experiment with gp120 SHIV SF162 P3 and 0.75 A450 with gp120 CAAN.

B3: 1.1.3-1 (antibody, human IgG1, kappa)
heavy: QVQLLQSGAAVTKPGASVRVSCEASGYNIRDYFIHWWRQAPGQGLQWVGWINPKTGQPNNPRQFQGRVSLTRHASWDFDTFSFYMDLKALRSDDTAVYFCARQRSDYWDFDVWGSGTQVTVSSASTKGPSVFPLAPSSKSTSGGTAALGCLVKDYFPEPVTVSWNSGALTSGVHTFPAVLQSSGLYSLSSVVTVPSSSLGTQTYICNVNHKPSNTKVDKKVEPKSCDKTHTCPPCPAPELLAGPDVFLFPPKPKDTLMISRTPEVTCVVVDVSHEDPEVKFNWYVDGVEVHNAKTKPREEQYNSTYRVVSVLTVLHQDWLNGKEYKCKVSNKALPLPEEKTISKAKGQPREPQVYTLPPSREEMTKNQVSLTCLVKGFYPSDIAVEWESNGQPENNYKTTPPVLDSDGSFFLYSKLTVDKSRWQQGNVFSCSVLHEALHSHYTQKSLSLSPGK
light: EIQMTQSPSSLSASVGDTVTITCQANGYLNWYQQRRGKAPKLLIYDGSKLERGVPSRFSGRRWGQEYNLTINNLQPEDIATYFCQVYEFVVPGTRLDLKRTVAAPSVFIFPPSDEQLKSGTASVVCLLNNFYPREAKVQWKVDNALQSGNSQESVTEQDSKDSTYSLSSTLTLSKADYEKHKVYACEVTHQGLSSPVTKSFNRGEC
Regarding B3, the “ELISA A450” value was 0.07 A450 with BSA, 0.97 A450 with gp120 Bal, 0.97 A450 in the experiment with gp120 SHIV SF162 P3 and 1 A450 with gp120 CAAN.

B4: 1.1.4-1 (antibody, human IgG1, kappa)
heavy: QVQLLQSGAAVTKPGASVRVSCEASGYNIRDYFIHWWRQAPGQGLQWVGWINPKTGQPNNPRQFQGRVSLTRHASWDFDTFSFYMDLKALRSDDTAVYFCARQRSDYWDFDVWGSGTQVTVSSASTKGPSVFPLAPSSKSTSGGTAALGCLVKDYFPEPVTVSWNSGALTSGVHTFPAVLQSSGLYSLSSVVTVPSSSLGTQTYICNVNHKPSNTKVDKKVEPKSCDKTHTCPPCPAPELLAGPDVFLFPPKPKDTLMISRTPEVTCVVVDVSHEDPEVKFNWYVDGVEVHNAKTKPREEQYNSTYRVVSVLTVLHQDWLNGKEYKCKVSNKALPLPEEKTISKAKGQPREPQVYTLPPSREEMTKNQVSLTCLVKGFYPSDIAVEWESNGQPENNYKTTPPVLDSDGSFFLYSKLTVDKSRWQQGNVFSCSVLHEALHSHYTQKSLSLSPGK
light: DIQMTQSPSSLSASVGDRVTITCQANGYLNWYQQRRGKAPKLLIYDGSKLERGVPSRFSGRRWGQEYNLTINNLQPEDIATYFCQVYEFVVPGTRLDLKRTVAAPSVFIFPPSDEQLKSGTASVVCLLNNFYPREAKVQWKVDNALQSGNSQESVTEQDSKDSTYSLSSTLTLSKADYEKHKVYACEVTHQGLSSPVTKSFNRGEC
As for B4, the “ELISA A450” value with BSA is 0.06 A450; with gp120 Bal, 0.96 A450; with gp120 SHIV SF162 P3 it was 1.07 A450; in the experiment with gp120 CAAN, 1.09 A450.

B5: 1.1.6-1 (antibody, human IgG1, kappa)
heavy: QVQLLQSGAAVTKPGASVRVSCEASGYNIRDYFIHWWRQAPGQGLQWVGWINPKTGQPNNPRQFQGRVSLTRHASWDFDTFSFYMDLKALRSDDTAVYFCARQRSDYWDFDVWGSGTQVTVSSASTKGPSVFPLAPSSKSTSGGTAALGCLVKDYFPEPVTVSWNSGALTSGVHTFPAVLQSSGLYSLSSVVTVPSSSLGTQTYICNVNHKPSNTKVDKKVEPKSCDKTHTCPPCPAPELLAGPDVFLFPPKPKDTLMISRTPEVTCVVVDVSHEDPEVKFNWYVDGVEVHNAKTKPREEQYNSTYRVVSVLTVLHQDWLNGKEYKCKVSNKALPLPEEKTISKAKGQPREPQVYTLPPSREEMTKNQVSLTCLVKGFYPSDIAVEWESNGQPENNYKTTPPVLDSDGSFFLYSKLTVDKSRWQQGNVFSCSVLHEALHSHYTQKSLSLSPGK
light: DIQMTQSPSSLSASVGDTVTITCQANGYLNWYQQRRGKAPKLLIYDASKLERGVPSRFSGRRWGQEYNLTINNLQPEDIATYFCQVYEFVVPGTRLDLKRTVAAPSVFIFPPSDEQLKSGTASVVCLLNNFYPREAKVQWKVDNALQSGNSQESVTEQDSKDSTYSLSSTLTLSKADYEKHKVYACEVTHQGLSSPVTKSFNRGEC
As to B5, the “ELISA A450” value with BSA was 0.07 A450; with gp120 Bal, 0.91 A450; with gp120 SHIV SF162 P3, 0.41 A450; with gp120 CAAN, 0.46 A450.

B6: 1.1.5-1 (antibody, human IgG1, kappa)
heavy: QVQLLQSGAAVTKPGASVRVSCEASGYNIRDYFIHWWRQAPGQGLQWVGWINPKTGQPNNPRQFQGRVSLTRHASWDFDTFSFYMDLKALRSDDTAVYFCARQRSDYWDFDVWGSGTQVTVSSASTKGPSVFPLAPSSKSTSGGTAALGCLVKDYFPEPVTVSWNSGALTSGVHTFPAVLQSSGLYSLSSVVTVPSSSLGTQTYICNVNHKPSNTKVDKKVEPKSCDKTHTCPPCPAPELLAGPDVFLFPPKPKDTLMISRTPEVTCVVVDVSHEDPEVKFNWYVDGVEVHNAKTKPREEQYNSTYRVVSVLTVLHQDWLNGKEYKCKVSNKALPLPEEKTISKAKGQPREPQVYTLPPSREEMTKNQVSLTCLVKGFYPSDIAVEWESNGQPENNYKTTPPVLDSDGSFFLYSKLTVDKSRWQQGNVFSCSVLHEALHSHYTQKSLSLSPGK
light: DIQMTQSPSSLSASVGDTVTITCQANGYLNWYQQKPGKAPKLLIYDGSKLERGVPSRFSGRRWGQEYNLTINNLQPEDIATYFCQVYEFVVPGTRLDLKRTVAAPSVFIFPPSDEQLKSGTASVVCLLNNFYPREAKVQWKVDNALQSGNSQESVTEQDSKDSTYSLSSTLTLSKADYEKHKVYACEVTHQGLSSPVTKSFNRGEC
On to B6, for which the “ELISA A450” value is 0.06 A450 in the experiment with BSA, 0.9 A450 in the experiment with gp120 Bal, 0.93 A450 with gp120 SHIV SF162 P3 and 0.9 A450 in the experiment with gp120 CAAN.

Values taken from patent US20240034774A1 (Gilead, published 2024).
